Key:
[1] = target: T1, HLA-A*02:06 molecule (HLA-A*02:06 gene product) (human); assay: flow cytometry, RA2.6 cells (RMAS + HLA-A*02:06), peptide dilution series, BB7.2 staining
T1 construct: whole, on cells; MHC class I on RA2.6 cells (mouse RMAS transfected with HLA-A*02:06); The light chain is not described
Method: Thereafter, the cells were cultured at 35° C. for 4 hours. […] A fluorescently labeled monoclonal antibody BB7.2, which specifically recognizes a peptide-binding HLA-A*02:06 molecule, was added thereto, incubation was carried out on ice for 20 minutes, and thus the cells were stained.
(§1) Thereafter, the amount of fluorescence per cell was measured using a flow cytometer, and a dissociation constant Kd value was calculated using a method that was reported in a paper (Udaka et al., Immunogenetics, 51, 816-828, 2000) by the inventors of the present invention.

[2] = target: T2, HLA-A*24:02 molecule (HLA-A*24:02 gene product) (human); assay: flow cytometry, acid-stripped C1R-A24 cells + purified b2m, peptide dilution series, 17A12 staining
T2 construct: MHC class I on acid-stripped C1R-A24 cells; The endogenous peptide and b2m were removed, then purified b2m was added
Method: First, C1R-A24 cells were exposed to acidic conditions at a pH of 3.3 for 30 seconds, and thus an endogenous peptide that originally binds to the HLA-A*24:02 molecule, and a light chain β2m, which is associated with HLA class-I molecules in common, were dissociated and removed. After neutralization, a purified β2m was added to C1R-A24 cells, and the obtained product was added to a series of dilutions of the peptide and incubated on ice for 4 hours. Staining was carried out using a fluorescently labeled monoclonal antibody 17A12, which recognizes association (MHC-pep) of the three members, that is, a HLA-A*24:02 molecule, a peptide, and β2m, which had reassociated during the incubation.
Thereafter, the MHC-pep count per C1R-A24 cell (proportional to the intensity of fluorescence of the above-mentioned fluorescent antibody) was quantitatively measured using a fluorescence-activated cell sorter FACScan (Becton-Dickinson). A binding-dissociation constant Kd value between the HLA-A*24:02 molecule and the peptide was calculated from the average intensity of fluorescence per cell using a method that was reported in a paper (Udaka et al., Immunogenetics, 51, 816-828, 2000) by the inventors of the present invention.

[3] = target: T3, HLA-A*02:01 molecule (HLA-A*02:01 gene product) (human); assay: flow cytometry, T2 cells + purified b2m, peptide dilution series, BB7.2 staining
T3 construct: MHC class I on T2 cells with added purified b2m
Method: as §1

Row | Binder | Data of binding experiment (log Kd) [1] [log Kd] | Data of binding experiment (log Kd) [2] [log Kd] | Data of binding experiment (log Kd) [3] [log Kd]
1 | TLAFREGTI (Only the start position in MUC1 is printed; The end of the range follows from the length of 9 residues) [TLAFREGTI (Seq. ID No. 9)] | -3.09 | -5.97 | –
2 | LQRDISEMF (Only the start position in MUC1 is printed; The end of the range follows from the length of 9 residues) [LQRDISEMF (Seq. ID No. 6)] | -4.26 | -6.65 | –
3 | SFFFLSFHI (Only the start position in MUC1 is printed; The end of the range follows from the length of 9 residues) [SFFFLSFHI (Seq. ID No. 8)] | -3.98 | -7.07 | –
4 | AASRYNLTI (Only the start position in MUC1 is printed; The end of the range follows from the length of 9 residues) [AASRYNLTI (Seq. ID No. 5)] | -3.82 | -6.15 | -4.81
5 | FSAQSGAGV (Only the start position in MUC1 is printed; The end of the range follows from the length of 9 residues) [FSAQSGAGV (Seq. ID No. 12)] | -5.66 | – | -4.74
6 | GVPGWGIAL (Only the start position in MUC1 is printed; The end of the range follows from the length of 9 residues) [GVPGWGIAL (Seq. ID No. 3)] | -5.76 | -5.93 | -4.55
7 | SVPVTRPAL (Only the start position in MUC1 is printed; The end of the range follows from the length of 9 residues) [SVPVTRPAL (Seq. ID No. 2)] | -5.63 | -7.24 | -3.9
8 | HHSDTPTTL (Only the start position in MUC1 is printed; The end of the range follows from the length of 9 residues) [HHSDTPTTL (Seq. ID No. 7)] | – | -5.87 | –
9 | AFREGTINV (Only the start position in MUC1 is printed; The end of the range follows from the length of 9 residues) [AFREGTINV (Seq. ID No. 4)] | – | -5.83 | –
10 | FLGLSNIKF (Only the start position in MUC1 is printed; The end of the range follows from the length of 9 residues) [FLGLSNIKF (Seq. ID No. 1)] | -4.39 | -7.07 | -5.39
11 | STGVSFFFL (Only the start position in MUC1 is printed; The end of the range follows from the length of 9 residues) [STGVSFFFL (Seq. ID No. 10)] | -5.21 | -5.17 | -5.12
12 | GQDVTSVPV (Only the start position in MUC1 is printed; The end of the range follows from the length of 9 residues) [GQDVTSVPV (Seq. ID No. 11)] | -6.35 | – | -6.44

Reference: US20200181195A1 (NEC, published 2020)
